According to the DeepSol protein solubility set:

assay: soluble on expression in E. coli; label from the status in PepcDB or PDB records

| Sequence | soluble on expression in E. coli |
| --- | --- |
| MDRKIREQIIAIYSNLQHKQDLTQFAHCLTTKADDNCEDFFNLGLQFQNNQLTALGFNGEGCIISTIASELTLSALEGKTIKEAIVLLEQFMEAVQTGSLSTPLPQALQLLWDFQIDQKRLNCLLLTPQNLLQWLKDFSH | soluble |
| MGSDKIHHHHHHMAQMTPSQEPQSAAEYDDRTTAAVKSVLIEIGQILGSFKGKFAIIGGAVPWLLLANEDMPHVGTLDVDVGLDAEALGDGEYATLVGALQGHGYAQREGLRRFQLVRQVPARDGGEAIDVVVDFLMPRDAEIVRNNPPLISDFAVQRADGADLAMRFYQLVAVAGSMPDGGTNRVEIAVCSIPALLAMKGHALAGRYKQKDAYDIYYCVRNYPAGIEALAQECRPLLGHASGERGFLHIADKFDAFDGYGPTCVRRFVEDTQALGDRTPDQWQQDAFGQIDALLRAMALRG | not soluble |
| MTASERVVVKELSSSLLDMKFMLKKKKQIETKAAKKKEAKLDQLITEKEAEATCSTEILKSSEPKLEICYDYAKLENLKFGRLSFGGFNKEVELLMEYYEKLQNGMLSDSDDDGMDVDDEEMAKSLGGQKLAALDKKSQSKRERRQQNERNEETTGGRRFNIKDIRKRFAADDVADAPERKFMKPAEDC | not soluble |
| MFVFMLLLLLPFTISKAKDFPANPIEKAGYKLDFSDEFNGPTLDREKWTDYYLPHWCKDPESAKANYRFENGSLVEYITEDQKPWCPEHDGTVRSSAIMSFDKSWIHNFSGTTDNHERNEWRGYTTKYGYFEIRAKLSNTGGGGHQAWWMVGMQDDTNDWFNSKQTGEIDILETFFSKKDTWRIAAYGWNDPNFQTSWTISEDKVPSGDPTSEYHIYAMEWTPTALKFYYDNELFKVIYGSPDYEMGTILNIYTDAGSGAHNDVWPKEWAIDYMRVWKPVDGYKESESLNNYLIRNRQTGKFLYIEENNDKVSYGDITLKNEKNAKWSKEYRDGYTLLKNNETGEYLNIENQTGYIEHGKVPKTWWSAQWSEVPVDGYTRFVNRWKPNMSIHTESYEGVLQYGNVPNTYWTSQWQLIPVE | soluble |
| MGNARGFLDFKRMDFKKIAPKERILNYKEFTIPLDKKEQEVQGGRCMDCGVAFCHTGVMSEGKDVGCPLNNLIPEWNDLVYRSLWKEAYERLDLTNPFPEFTGRVCPAPCEDSCVCAINGVSVSIKNNELSIIENAFKENLVRVNKPKQYNGKKIAVIGSGPAGLACANTLNSLGYKVSVFERSDKIGGLLMYGIPDMKLDKSIVQRRVDLLKKSGIEFKVNENIDSKDKVSKLLKEFDALVLCTGASKPIDLDIEGRKLKGVEFALDFLTQNTKTLLKTGKGADMAKGKNVLVIGSGDTSVDCIAVATRQGAKSIVRFERSPKRPLQRSQNNPWPLKADIFTTDYGLEEAIAVYGKDPREYQKMTKKFLGKTHVEGVEANDLKREFKEGKAINVEISNSKKTYKADLVLLAMGFSGCEEAISKNFGVKLDEKNNISTENFQTTHKKIFACGDARKGQSLVVWAIKDGIECALSLHQNLAKLEHHHHHH | not soluble |
| MAHHHHHHMHSSPFPSLFLVSRNGAHASRFSVVQLEYITSTCFSLLQVVTYRVATCSHGTMTALADEVREKYSLSLSSDYVERCVQAKASLTSLELYQKSLWENLRDICGTSLLPYGIGAQVSATLPNAVVMQINASRDATQPLRPCADASDEEAFLNAAFQRNSSKRLLRLQLTDGNVEISALELSTLCVFQGIPTPGEKLLIHKGAEVRNGCIILSEGSVSVLGGEVRQLKQDFLANRRRLEVGYQTSNGLDGAPRFAPLQVGHHYRSSVANSGAPVDIGHQGGASPYHANERGGRRSNYSRNGGGGGRAQQAGDNYEGRVSAGDHGRGGRGGRGGRGWDSSYGGDGWRGHGRRGGGYVRRGDGGRVDSRGCVGGASYHVDTANFQPPAEKFPEINEANFPRLV | not soluble |
| MNKQIDLPIADVQGSLDTRHIAIDRVGIKAIRHPVVVADKGGGSQHTVAQFNMYVNLPHNFKGTHMSRFVEILNSHEREISVESFEEILRSMVSRLESDSGHIEMAFPYFINKSAPVSGVKSLLDYEVTFIGEIKHGNQYSFTMKVIVPVTSLCPCSKKISDYGAHNQRSHVTISVRTNSFIWIEDIIRIAEEQASCELYGLLKRPDEKYVTERAYNNPKFVEDIVRDVAEVLNHDDRIDAYIVESENFESIHNHSAYALIERDKRIR | soluble |
| MGSSHHHHHHSSGRENLYFQGHMKPDAHQVKQFLLNLQDTICQQLTAVDGAEFVEDSWQREAGGGGRSRVLRNGGVFEQAGVNFSHVHGEAMPASATAHRPELAGRSFEAMGVSLVVHPHNPYVPTSHANVRFFIAEKPGADPVWWFGGGFDLTPFYGFEEDAIHWHRTARDLCLPFGEDVYPRYKKWCDEYFYLKHRNEQRGIGGLFFDDLNTPDFDRCFAFMQAVGKGYTDAYLPIVERRKAMAYGERERNFQLYRRGRYVEFNLVWDRGTLFGLQTGGRTESILMSMPPLVRWEYDYQPKDGSPEAALSEFIKVRDWV | soluble |
| MGSDKIHHHHHHMTEKIRVAVVGAAGAFGMKHLDGLMNIPDVEVTVVSGTRLEPTQAVAEKYGVENAVVGLDAVLERDDVDAVILATPTGLHASQTQAVLAAGKHVQVEIPLADSIVDAEAALEAAESSNRVAMVGHTRRFNPSHQLVHNRIASGEFHVQQMDVQTYFFRRTNTNAKGEARSWTDHLLWHHAAHTVDLFAYQAGKIVHANAIQGPIHPELGIAMDMSIQLKSESGAICTLSLSFNNNGPFGTFFRYIGDTETYIARYDDLYNGREEPIDVSHVAVSMNGIELQDREFISAIREGREPNSSLRHVIDCYRVLGSLEKQLS | not soluble |
| MSLRTTASEFDNFGYGVSDSLGMRDHVSARDLFVQKFRGKENEMLLCAFDGKHGATNQGHRISLVAKNMFVRNFTKELDEIKNDDEIENALRKAFLNFNKEINGILTAKKNKSFTPVPNMSKEALELNLVDDGNAGCTVSVIYIKDKKLYSANIGDIEALLCRNNGDQFLLTEKHDPTNREEFERIRASGGYVSGGGELDGQLSVSRGVGFFNFLPHTHCGPTIRRFKITNDDDMIILGSKQLWDFISYESAVDIIRKDKNDPMVAAQKLRDFAICYGATDKICVIVLTFGNREGHHHHHH | soluble |
| MFVTLEVSDRAPLEATMSTPHHPVAIIGGGLGGLTAARVLHVNGIESAVFDLESGPEARTQGGMLDIHEENGQEAIRAAGLHDEFREIIHEGGQAMRLVGPDGTVRVATEDQGDGGRPEVDRGDLRGLLLNSLPDGTVHWRHKATGARALDDGRHEVTFADGSALTTDLLIGADGAWSRIRPLLSDAEPAYTGISFVESDLHEADTRHPRSAALVGGGFFISLGDRRGFLAHRETDGSLHVYTALRADEGWIDTVDFTDHAAAKAAVLAHFDGWDEGLRSLVAHAETITPRRIHALPVGHRWKRTPGVTLLGDAAHLMSPFAGEGANLAMYDGAELALALAAHPGDTEAALTQYEEGLFPRSEASAVESAGSLDTMFGTDGLEQMIGFFGAGRAEALEHHHHHH | not soluble |
| SFSSLPLTGENPGAWALVRDNSAKGITAGSGSQQTTYDPTRTEAALTASTTFALRRYDLAGRALYDLDFSKLNPQTPTRDQTGQITFNPFGGFGLSGAAPQQWNEVKNKVPVEVAQDPSNPYRFAVLLVPRSVVYYEQLQRGLGLPQQRTESGQNTSTTGAMFGLKVKNAEADTAKSNEKLQGAEATGSSTTSGSGQSTQRGGSSGDTKVKALKIEVKKKSDSEDNGQLQLEKNDLANAPIKRSEESGQSVQLKADDFGTALSSSGSGGNSNPGSPTPWRPW | soluble |
| MGSDKIHHHHHHMLRFVMNDDQQSCLVSRLSRFVALTEAECAFIAEMEKDEHERRKGRPVVQVGDPTEGIMVLKSGWAVVKADSSDGRSQILRVYLPGEVMGLAEIGSSHANHRIIMQTDGKICPFPRAGLAPLYSDYPRLGALLTAVGSLDQIALRHHASSLGAMDATGRLKFWLLQLRSRLEVANVGLGNRFRVPFSQVEIGQAVGLTSIYVNKLLRRFMDDGDLEIERPYFRLLNREQWERDCEYVNPFVDMDTSWFPPAYPEIHDSAP | not soluble |
